Test system: BMPs-2, 4, 6 and 7
Experiment: SPR binding of BMP ligands to Tfr2-ECD immobilized on the sensor chip
Description: For this purpose, Tfr2-ECD is immobilized on a Series S Sensor Chip C1 (GE Healthcare), by means of coupling the amino groups at 25° C. The carboxyl groups on the chip surface are activated for 7 minutes using a mixture of 196 mM 1-ethyl-3-(3-dimethylaminopropyl) carbodiimide-hydrochloride and 50 mM n-hydroxysuccinimide at a flow rate of 10 μl/min. Subsequently, 5 μg/ml Tfr2-ECD, diluted with sodium acetate buffer (pH 4.5), is injected at a flow rate of 5 μl/min up to a relative occupancy of 200 RU. Non-reacted groups are inactivated by injecting 1 M thanolamine-HCl (pH 8.5) for 7 minutes at a flow rate of 10 μl/min. In order to prepare a reference surface, the same procedure is carried out but without Tfr2-ECD being injected.
The binding assays are carried out at 37° C. at a flow rate of 30 μl/min. Each analyte is diluted by a running buffer (HBS-P, pH 7.4 together with 50 nM FeCl3). BMPs are used in a concentration of 50 nM and BMP receptors are used in a concentration of 200 nM. The binding assays are carried out by means of analyte injection for 300 s over the Tfr2-ECD surface, followed by dissociation for 1000 s. The values of the binding level are read out, relative to the baseline, 10 s before the end of the injection and are corrected with respect to the molar mass. Following the dissociation for 1000 s, the chip surface is regenerated for 60 s by means of HBS-P together with 5 M NaCl and 50 mM NaOH and is stabilized for 1000 s. The binding parameters are determined using the Biacore™ T100 evaluation software 2.03.
Tfr2-ECD, BMP-2 and BMP-4 were immobilized onto Series S Sensor Chips C1 (GE Healthcare) via its amine groups at 25° C. […]
For binding analysis, an injection of analyte for 240 s or 300 s over a Tfr2-ECD surface was followed by 1000 s dissociation. The values of the binding levels were recorded from referenced signals 10 s before the end of injection relative to baseline response. […]

Binding of BMPs-2, 4 and 6 to Tfr2-ECD at high salt concentrations (500 mM NaCl in running buffer): at a lower level
Binding of BMPs to immobilized Tfr2-ECD compared with holo-transferrin (BMP ligands 50 nM, 1 mg/ml holo-Tf): more avidly than holotransferrin
Binding of BMP-2 to Tfr2 relative to that of holo-Tf (BMP-2 vs holo-Tf): more than 10 fold
B1: Tfr2-ECD: Recombinant full-length extracellular domain (aa 103-798) of murine Tfr2, His-tagged, expressed in Sf9 insect cells (protein, listed as Mus musculus)
chain: RGSCQACGDSVLVVDEDVNPEDSGRTTLYWSDLQAMFLRFLGEGRMEDTIRLTSLRERVAGSARMATLVQDILDKLSRQKLDHVWTDTHYVGLQFPDPAHANTLHWVDADGSVQEQLPLEDPEVYCPYSATGNATGKLVYAHYGRSEDLQDLKAKGVELAGSLLLVRVGITSFAQKVAVAQDFGAQGVLIYPDPSDFSQDPHKPGLSSHQAVYGHVHLGTGDPYTPGFPSFNQTQFPPVESSGLPSIPAQPISADIADQLLRKLTGPVAPQEWKGHLSGSPYRLGPGPDLRLVVNNHRVSTPISNIFACIEGFAEPDHYVVIGAQRDAWGPGAAKSAVGTAILLELVRTFSSMVSNGFRPRRSLLFISWDGGDFGSVGATEWLEGYLSVLHLKAVVYVSLDNSVLGDGKFHAKTSPLLVSLIENILKQVDSPNHSGQTLYEQVALTHPSWDAEVIQPLPMDSSAYSFTAFAGVPAVEFSFMEDDRVYPFLHTKEDTYENLHKMLRGRLPAVVQAVAQLAGQLLIRLSHDHLLPLDFGRYGDVVLRHIGNLNEFSGDLKERGLTLQWVYSARGDYIRAAEKLRKEIYSSERNDERLMRMYNVRIMRVEFYFLSQYVSPADSPFRHIFLGQGDHTLGALVDHLRMLRADGSGAASSRLTAGLGFQESRFRRQLALLTWTLQGAANALSGDVWNIDNNF
modifications: His tag
notes: Recombinant full-length extracellular domain (aa 103-798) of murine Tfr2, His-tagged, expressed in Sf9 insect cells

— US20240199755A1, “ANTAGONISTS AND AGONISTS OF THE TRANSFERRIN RECEPTOR-2 FOR USE IN THE TREATMENT OF DISEASES OF THE BONE” (Kymab Limited, priority 2018, published 2024)
